For test [1], the target named is T1, human CTLA-4 expressed on cells (human, UniProt P16410 36-223).
T1 construct: whole, on cells; On stably or transiently transfected HEK293 cells; also called hCTLA-4; HEK293-hCTLA-4 cells
Put plainly: flow cytometry on HEK293-hCTLA-4 cells. The procedure: (§1) To test the binding of antibodies to CTLA-4 under more physiological conditions, the binding of CTLA-4 antibodies to cell-surface CTLA-4 was tested. […] The surface expression of hCTLA-4 in the obtained cell line was tested using a commercial anti-CTLA-4 antibody and compared to the parent cell line (HEK293 without transfection). […] The anti-CTLA-4 antibodies were incubated in serial dilution concentrations with the HEK293-hCTLA-4 cells for 1 hour on ice. Following a wash step, an anti-human antibody conjugated to ALEXA FLUOR® 647® was added for an additional hour. The cells were washed, and propidium iodide (PI) was added to exclude dead cells. The fluorescent signal was measured using FACS and analyzed. Dead cells were removed based on the PI signal. The population was gated based on forward and side scatter (FSC and SSC) parameters, and doublets were removed. The Median Fluorescent Intensity (MFI) of the appropriate channel was calculated for the live single cells from each group. The MFI was plotted versus antibody concentration in Prism software (V6.01) and kinetic parameters were obtained using a curve fit dose response function with four parameters. […] The lower EC₅₀ values indicate increased binding affinity to cell surface hCTLA-4.
A general note: In flow cytometry, cells or beads pass a laser one at a time.

Test [2] has as its target T2, Mouse (Mus musculus) CTLA-4 on HEK293 cells (Mus musculus, UniProt P09793 36-223).
T2 construct: whole, on cells; also called mouse CTLA-4
Description: flow cytometry on HEK293 cells transiently expressing mouse CTLA-4. As to the method: (§2) Macaque (Macaca fascicularis), pig (Sus scrofa) and mouse (Mus musculus) CTLA-4 proteins were transiently expressed on the surface of HEK293 cells. […] Binding was measured using FACS and analyzed.

Test [3] addresses T3, Pig (Sus scrofa) CTLA-4 on HEK293 cells (Sus scrofa, UniProt Q9MYX7 36-223).
T3 construct: whole, on cells; also called pig CTLA-4
Put plainly: flow cytometry on HEK293 cells transiently expressing pig CTLA-4, reference ipilimumab. The procedure:
as §2

In a further test the target is T4, hBTLA on HEK293 cells (human, UniProt Q7Z6A9 31-289).
T4 construct: whole, on cells
Description: flow cytometry on transfected HEK293 cells. As to the method:
(§3) HEK293 cells were transfected with expression vectors of the following immune-related proteins: hBTLA, hICOS, hCD28, hPDL1, hPD1, hPDL2, and hCTLA-4. Over-expression of the proteins was verified using commercial antibodies against each target. […] Antibody binding to cells was then detected using flow cytometry. Cells that were incubated only with the secondary antibody were used as a background control. […] Note that “+” indicates binding above the background level and “-” indicate no binding as compared to the background level.

Another test deals with T5, hPDL2 on HEK293 cells (human, UniProt Q9BQ51 20-273).
T5 construct: whole, on cells
T5 sequence (looked up): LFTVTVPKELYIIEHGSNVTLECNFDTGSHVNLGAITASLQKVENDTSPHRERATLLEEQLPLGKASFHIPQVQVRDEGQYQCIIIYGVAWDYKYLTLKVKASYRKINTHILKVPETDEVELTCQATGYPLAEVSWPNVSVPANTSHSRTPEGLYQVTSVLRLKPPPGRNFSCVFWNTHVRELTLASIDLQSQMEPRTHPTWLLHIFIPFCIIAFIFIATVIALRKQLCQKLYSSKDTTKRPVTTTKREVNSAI
Description: flow cytometry on transfected HEK293 cells. As to the method:
as §3

Test [4] addresses T1, human CTLA-4 expressed on cells. Description: flow cytometry on transfected HEK293 cells. The procedure:
as §3

The target in another test is T6, hPDL1 on HEK293 cells (human, UniProt Q9NZQ7 19-290).
T6 construct: whole, on cells
Put plainly: flow cytometry on transfected HEK293 cells. The procedure:
as §3

For a further test, the target named is T7, hPD1 on HEK293 cells (human, UniProt Q15116 25-288).
T7 construct: whole, on cells
Description: flow cytometry on transfected HEK293 cells. As to the method: as §3

Another test concerns the target T8, hCD28 on HEK293 cells (human, UniProt P10747 19-220).
T8 construct: whole, on cells
Put plainly: flow cytometry on transfected HEK293 cells. As to the method:
as §3

Test [5] has as its target T2, Mouse (Mus musculus) CTLA-4 on HEK293 …. Description: flow cytometry on HEK293 cells transiently expressing mouse CTLA-4, reference ipilimumab. As to the method:
as §2

Test [6] shares this target. Put plainly: flow cytometry on HEK293 cells transiently expressing mouse CTLA-4, reference tremelimumab. As to the method: as §2
Test [7] addresses T1, human CTLA-4 expressed on cells. Description: flow cytometry on HEK293-hCTLA-4 cells. The procedure:
as §1
This is another data set of the same source.

Test [8] addresses T9, Macaque (Macaca fascicularis) CTLA-4 on HEK293 cells (Macaca fascicularis, UniProt G7PL88 36-223).
T9 construct: whole, on cells; also called macaque CTLA-4
Put plainly: flow cytometry on HEK293 cells transiently expressing macaque CTLA-4, reference ipilimumab. As to the method: as §2

Test [9] addresses T9, Macaque (Macaca fascicularis) CTLA-4 on …. Put plainly: flow cytometry on HEK293 cells transiently expressing macaque CTLA-4, reference tremelimumab. The procedure:
as §2

In test [10] the target is T1, human CTLA-4 expressed on cells. Description: flow cytometry, inhibition of CD80-mFC binding to HEK293-hCTLA-4 cells, reference tremelimumab. As to the method:
As part of their activity, CTLA-4 therapeutic antibodies block the interaction between CTLA-4 and its ligands, leaving the ligands free for CD28 binding. […] First, HEK293-hCTLA-4 cells were incubated with the tested antibodies in a serial dilution for 30 minutes. […] The fluorescence was measured and analyzed. The experiment was performed in triplicate and is representative of three biological repeats.

The target is the same in test [11]. Description: cell-based or functional assay.
Test [12] concerns the target T3, Pig (Sus scrofa) CTLA-4 on HEK293 cells. Put plainly: flow cytometry on HEK293 cells transiently expressing pig CTLA-4. As to the method:
as §2

Like-named read-outs stand apart in the source and are kept apart here.

T1 sequence (P16410 36-223): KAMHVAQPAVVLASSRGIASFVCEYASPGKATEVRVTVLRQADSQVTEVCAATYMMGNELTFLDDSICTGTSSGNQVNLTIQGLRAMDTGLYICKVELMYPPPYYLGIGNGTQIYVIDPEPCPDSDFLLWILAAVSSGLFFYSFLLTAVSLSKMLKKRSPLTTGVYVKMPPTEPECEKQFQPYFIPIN
T7 sequence (Q15116 25-288): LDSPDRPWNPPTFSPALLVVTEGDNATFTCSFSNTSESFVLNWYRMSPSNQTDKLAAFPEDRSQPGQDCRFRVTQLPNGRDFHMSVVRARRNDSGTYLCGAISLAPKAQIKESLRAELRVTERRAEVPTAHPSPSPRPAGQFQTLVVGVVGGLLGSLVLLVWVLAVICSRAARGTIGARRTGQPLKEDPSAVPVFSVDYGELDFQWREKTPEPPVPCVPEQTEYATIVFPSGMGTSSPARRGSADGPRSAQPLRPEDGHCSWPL
T3 sequence (Q9MYX7 36-223): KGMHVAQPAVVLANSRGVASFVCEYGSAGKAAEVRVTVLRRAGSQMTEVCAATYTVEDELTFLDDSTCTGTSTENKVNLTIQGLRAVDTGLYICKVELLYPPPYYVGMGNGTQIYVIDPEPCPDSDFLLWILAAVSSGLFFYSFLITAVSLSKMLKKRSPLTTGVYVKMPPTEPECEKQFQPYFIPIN
T6 sequence (Q9NZQ7 19-290): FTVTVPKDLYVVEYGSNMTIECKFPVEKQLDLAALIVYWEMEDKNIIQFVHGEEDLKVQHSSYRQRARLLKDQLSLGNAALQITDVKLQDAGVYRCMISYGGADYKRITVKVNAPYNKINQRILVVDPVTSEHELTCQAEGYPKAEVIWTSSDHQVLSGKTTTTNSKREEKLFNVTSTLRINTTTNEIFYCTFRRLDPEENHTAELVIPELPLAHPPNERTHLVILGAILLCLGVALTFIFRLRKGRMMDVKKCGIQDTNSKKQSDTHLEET
T9 sequence (G7PL88 entry or part of it): as the sequence (P16410 36-223) above, with S14N, I18T, L106M counted along it

B1: Ab55h (antibody, V domains shown)
VH: QVQLQESGPGLVKPSETLSLTCAVSGYSISGDYYWGWIRQPPGKGLEWIGSIYHSGYTYYNPSLKSRVTISVDTSKNQFSLKLSSVTAADTAVYYCARDSGWYVIAFDYWGQGTLVTVSS
VL: EIVMTQSPATLSVSPGERATLSCRASQSVSSNLAWYQEKPGQAPRLLIYGASTRATGIPARFSGSGSGTEFTLTISSLQSEDFAVYYCQQYNNWPPLTFGGGTKVEIK
notes: Human form, compared with an hIgG1 isotype control
A word on the EC50: it is the concentration that produces a half-maximal response. A lower EC50 goes with a more potent agent. As to B1, the concentration for a half-maximal effect (EC50) in test [1] was 0.17 nM; in test [2], 34 nM; in test [7], 0.24 nM; in test [12] it was 0.12 nM. Also, the “Ratio Ipilimumab:Ab55h of EC50” value worked out at 5590 fold in [3], 0.18 fold in [5] and 2.6 fold in [8]. For the same molecule, the MFI in the test with hBTLA on HEK293 cells was 68 MFI; with hPDL2 on HEK293 cells, 70 MFI; in [4], 3290 MFI; with hPDL1 on HEK293 cells, 69 MFI; in the test with hPD1 on HEK293 cells, 72 MFI; with hCD28 on HEK293 cells it was 66 MFI. For the same molecule, the binding result with hBTLA on HEK293 cells, with hPDL2 on HEK293 cells, in the test with hPDL1 on HEK293 cells, with hPD1 on HEK293 cells and with hCD28 on HEK293 cells was “no binding” throughout. Besides, the entries for the “Ratio Tremelimumab:Ab55h of EC50” value in [6] and in test [9] were 3 fold and 1.7 fold, respectively. For the same molecule, the “Ratio Tremelimumab:Ab55h of IC50” value in test [10] turned out to be 1.6 fold. Moreover, in test [11], the “SHP1 reporter IC50” value was 0.059 nM. Also, in [11], the “SHP1 reporter IC50, Ratio Ab55h:Ipilimumab” value was 4.5 fold.

Source of the values: patent publication US20210355220A1 (TIKCRO TECHNOLOGIES, published 2021).
